Measurements: doi:10.1101/2021.12.21.473719 (bioRxiv, 2021)

Molecular target: T1, POPDC1-Myc (Popeye domain-containing protein 1, Myc-tagged) (mouse, UniProt Q9ES83 1-358)
T1 sequence (looked up): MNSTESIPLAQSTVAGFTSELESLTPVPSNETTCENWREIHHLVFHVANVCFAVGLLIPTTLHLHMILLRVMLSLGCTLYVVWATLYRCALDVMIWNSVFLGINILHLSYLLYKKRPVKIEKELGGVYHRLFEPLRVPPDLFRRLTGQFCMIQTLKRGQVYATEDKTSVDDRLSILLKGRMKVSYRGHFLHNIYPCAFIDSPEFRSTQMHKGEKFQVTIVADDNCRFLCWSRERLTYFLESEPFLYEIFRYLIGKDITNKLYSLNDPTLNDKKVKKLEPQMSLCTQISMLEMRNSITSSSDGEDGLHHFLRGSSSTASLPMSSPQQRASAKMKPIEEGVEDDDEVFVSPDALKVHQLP
Assay: co-IP

- fold Ca2+/calmodulin-stimulated AC activity over IgG controls: 1.59 fold
B1: AC1 (adenylyl cyclase type 1), non-tagged (enzyme)
chain: not shown
